Laboratory results reported in patent US20260250418A1 (BIOCYTOGEN PHARMACEUTICALS BEIJING, published 2026).

T1: monkey (Macaca fascicularis) HER3 on CHO-fasHER3 cells (monkey (Macaca fascicularis), UniProt P21860 20-643 (human entry))
T1 construct: CHO-S cells transfected with fasHER3
T1 chain: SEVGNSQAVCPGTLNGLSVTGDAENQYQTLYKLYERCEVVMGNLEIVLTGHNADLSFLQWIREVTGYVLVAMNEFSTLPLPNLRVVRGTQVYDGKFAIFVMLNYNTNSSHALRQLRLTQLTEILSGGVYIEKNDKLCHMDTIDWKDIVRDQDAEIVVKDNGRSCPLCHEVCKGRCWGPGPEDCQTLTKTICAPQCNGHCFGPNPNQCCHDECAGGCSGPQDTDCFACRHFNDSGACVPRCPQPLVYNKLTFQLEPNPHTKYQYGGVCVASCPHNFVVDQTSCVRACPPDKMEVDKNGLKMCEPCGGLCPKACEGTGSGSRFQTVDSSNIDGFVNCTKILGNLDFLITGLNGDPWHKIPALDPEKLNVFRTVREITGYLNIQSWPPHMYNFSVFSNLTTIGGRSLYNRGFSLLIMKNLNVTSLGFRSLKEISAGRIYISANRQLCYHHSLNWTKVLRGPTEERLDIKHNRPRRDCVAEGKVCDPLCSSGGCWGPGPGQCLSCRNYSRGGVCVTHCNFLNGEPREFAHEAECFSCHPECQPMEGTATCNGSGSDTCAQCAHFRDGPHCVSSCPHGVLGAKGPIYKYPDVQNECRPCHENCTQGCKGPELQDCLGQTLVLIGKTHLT


Legend:
[1] = target: T2, His-tagged human HER3 protein (hHER3, ACRO Biosystems Inc., Cat #: ER3-H5223) (human, UniProt P21860 20-643); assay: SPR, Ab captured on Protein A, antigen 400 nM
T2 construct: Bought protein; also called hHER3-His; not shown: His tag
Protocol: (§1) Purified antibodies were captured on the Protein A chip (Series S Sensor Chip Protein A) for the detection. 2 μg/mL antibodies were loaded at 10 μL/min to bind to hHER3, fasHER3, hMET or fasMET (400 and 0 nM). The flow rate was 30 μL/min, the binding and dissociation time were set to 180 s and 400 s, respectively. The chip was regenerated after the last injection of each titration with a glycine solution ([…]) at 30 μL/min for 30 seconds.

[2] = target: T3, His-tagged human MET (hMET, Sino Biological, Inc., Cat #: 10692-H08H) (human, UniProt P08581 25-932); assay: SPR, Ab captured on Protein A, antigen 400 nM
T3 construct: Bought protein; not shown: His tag
T3 sequence (P08581 25-932 limits assumed): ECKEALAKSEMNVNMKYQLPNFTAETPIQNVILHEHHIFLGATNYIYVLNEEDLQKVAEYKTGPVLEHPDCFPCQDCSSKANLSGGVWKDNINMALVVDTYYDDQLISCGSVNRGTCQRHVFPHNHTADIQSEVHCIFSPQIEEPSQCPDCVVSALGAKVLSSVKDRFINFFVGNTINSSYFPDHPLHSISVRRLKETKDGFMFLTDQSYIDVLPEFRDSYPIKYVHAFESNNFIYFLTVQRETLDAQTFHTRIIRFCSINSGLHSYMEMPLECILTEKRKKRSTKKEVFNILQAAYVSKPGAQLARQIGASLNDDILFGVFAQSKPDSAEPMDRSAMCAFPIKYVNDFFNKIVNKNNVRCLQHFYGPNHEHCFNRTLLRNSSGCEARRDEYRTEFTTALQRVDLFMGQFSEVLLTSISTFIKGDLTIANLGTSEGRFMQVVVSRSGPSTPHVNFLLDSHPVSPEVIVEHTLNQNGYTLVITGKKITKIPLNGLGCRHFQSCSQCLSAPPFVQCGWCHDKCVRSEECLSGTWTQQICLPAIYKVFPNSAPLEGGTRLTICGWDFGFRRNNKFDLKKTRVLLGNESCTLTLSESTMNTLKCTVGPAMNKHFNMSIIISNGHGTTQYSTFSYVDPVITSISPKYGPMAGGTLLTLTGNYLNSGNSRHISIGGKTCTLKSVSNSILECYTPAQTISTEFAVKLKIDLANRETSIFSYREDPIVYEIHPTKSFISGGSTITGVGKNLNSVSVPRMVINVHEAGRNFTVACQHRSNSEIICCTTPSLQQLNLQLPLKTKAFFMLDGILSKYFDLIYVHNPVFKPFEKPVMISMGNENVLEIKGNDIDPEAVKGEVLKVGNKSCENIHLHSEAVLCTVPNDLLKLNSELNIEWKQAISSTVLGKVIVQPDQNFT
Protocol: as §1

[3] = target: T4, His-tagged monkey HER3 protein (fasHER3, Sino Biological, Inc., Cat #: 90043-K08H) (monkey); assay: SPR, Ab captured on Protein A, antigen 400 nM
T4 construct: Bought protein
Protocol: as §1

[4] = target: T5, human HER3 on CHO-hHER3 cells (human, UniProt P21860 20-643); assay: flow cytometry, transfected CHO cells
T5 construct: CHO-S cells transfected with hHER3
Protocol: (§2) Specifically, CHO-hHER3 cells, CHO-fasHER3 cells, NIH3T3-hMET cells or NIH3T3-fasMET cells were transferred to a 96-well plate at a density of 5×10⁴ cells/well respectively. The antibodies were added to the 96-well plate, and incubated at 4° C. for 30 min.

[5] = target: T1, monkey (Macaca fascicularis) HER3 on …; assay: flow cytometry, transfected CHO cells
Protocol: as §2

[6] = target: T6, human MET on NIH3T3-hMET cells (human, UniProt P08581 25-1390); assay: flow cytometry, transfected NIH3T3 cells
T6 construct: NIH3T3 cells transfected with a plasmid expressing hMET
T6 sequence (P08581 25-1390 limits assumed): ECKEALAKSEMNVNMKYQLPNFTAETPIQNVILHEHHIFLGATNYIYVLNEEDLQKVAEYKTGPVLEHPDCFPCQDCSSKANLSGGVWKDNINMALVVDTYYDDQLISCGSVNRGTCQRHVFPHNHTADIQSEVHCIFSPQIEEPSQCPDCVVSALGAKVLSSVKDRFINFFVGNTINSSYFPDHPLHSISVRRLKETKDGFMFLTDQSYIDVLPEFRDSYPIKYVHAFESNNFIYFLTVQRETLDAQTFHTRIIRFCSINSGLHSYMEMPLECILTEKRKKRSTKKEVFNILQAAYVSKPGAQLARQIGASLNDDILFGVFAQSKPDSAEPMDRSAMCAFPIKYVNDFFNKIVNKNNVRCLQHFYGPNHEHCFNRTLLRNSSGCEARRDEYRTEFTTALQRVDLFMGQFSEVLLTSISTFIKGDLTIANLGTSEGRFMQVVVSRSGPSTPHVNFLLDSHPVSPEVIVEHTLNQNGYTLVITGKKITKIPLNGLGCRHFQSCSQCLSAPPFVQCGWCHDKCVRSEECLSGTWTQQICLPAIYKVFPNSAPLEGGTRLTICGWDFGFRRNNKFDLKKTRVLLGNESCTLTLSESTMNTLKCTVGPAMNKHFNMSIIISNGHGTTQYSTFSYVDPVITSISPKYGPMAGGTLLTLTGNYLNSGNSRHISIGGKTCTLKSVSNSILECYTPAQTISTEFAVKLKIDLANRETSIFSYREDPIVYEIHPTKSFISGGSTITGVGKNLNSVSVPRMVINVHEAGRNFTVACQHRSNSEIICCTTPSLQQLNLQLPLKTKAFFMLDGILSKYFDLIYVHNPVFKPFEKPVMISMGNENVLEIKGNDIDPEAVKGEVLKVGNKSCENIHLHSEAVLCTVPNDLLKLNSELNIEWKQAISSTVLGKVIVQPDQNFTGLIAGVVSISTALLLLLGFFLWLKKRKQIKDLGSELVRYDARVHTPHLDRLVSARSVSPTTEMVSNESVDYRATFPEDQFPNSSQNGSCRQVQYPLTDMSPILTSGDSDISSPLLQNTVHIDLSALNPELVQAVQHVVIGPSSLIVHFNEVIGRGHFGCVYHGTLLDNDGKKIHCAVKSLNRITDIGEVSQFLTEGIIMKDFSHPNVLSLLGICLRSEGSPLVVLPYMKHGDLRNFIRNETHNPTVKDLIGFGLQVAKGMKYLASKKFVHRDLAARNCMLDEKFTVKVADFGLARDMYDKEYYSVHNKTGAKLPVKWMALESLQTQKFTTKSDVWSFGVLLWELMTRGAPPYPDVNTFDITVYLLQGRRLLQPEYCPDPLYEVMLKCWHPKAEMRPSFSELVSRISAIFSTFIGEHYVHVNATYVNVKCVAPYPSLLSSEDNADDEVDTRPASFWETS
Protocol: as §2

[7] = target: T7, monkey MET on NIH3T3-fasMET cells (monkey, UniProt A0M8R7 25-1381); assay: flow cytometry, transfected NIH3T3 cells
T7 construct: NIH3T3 cells transfected with a plasmid expressing fasMET
T7 sequence (A0M8R7 25-1381 S170N/I621T limits assumed): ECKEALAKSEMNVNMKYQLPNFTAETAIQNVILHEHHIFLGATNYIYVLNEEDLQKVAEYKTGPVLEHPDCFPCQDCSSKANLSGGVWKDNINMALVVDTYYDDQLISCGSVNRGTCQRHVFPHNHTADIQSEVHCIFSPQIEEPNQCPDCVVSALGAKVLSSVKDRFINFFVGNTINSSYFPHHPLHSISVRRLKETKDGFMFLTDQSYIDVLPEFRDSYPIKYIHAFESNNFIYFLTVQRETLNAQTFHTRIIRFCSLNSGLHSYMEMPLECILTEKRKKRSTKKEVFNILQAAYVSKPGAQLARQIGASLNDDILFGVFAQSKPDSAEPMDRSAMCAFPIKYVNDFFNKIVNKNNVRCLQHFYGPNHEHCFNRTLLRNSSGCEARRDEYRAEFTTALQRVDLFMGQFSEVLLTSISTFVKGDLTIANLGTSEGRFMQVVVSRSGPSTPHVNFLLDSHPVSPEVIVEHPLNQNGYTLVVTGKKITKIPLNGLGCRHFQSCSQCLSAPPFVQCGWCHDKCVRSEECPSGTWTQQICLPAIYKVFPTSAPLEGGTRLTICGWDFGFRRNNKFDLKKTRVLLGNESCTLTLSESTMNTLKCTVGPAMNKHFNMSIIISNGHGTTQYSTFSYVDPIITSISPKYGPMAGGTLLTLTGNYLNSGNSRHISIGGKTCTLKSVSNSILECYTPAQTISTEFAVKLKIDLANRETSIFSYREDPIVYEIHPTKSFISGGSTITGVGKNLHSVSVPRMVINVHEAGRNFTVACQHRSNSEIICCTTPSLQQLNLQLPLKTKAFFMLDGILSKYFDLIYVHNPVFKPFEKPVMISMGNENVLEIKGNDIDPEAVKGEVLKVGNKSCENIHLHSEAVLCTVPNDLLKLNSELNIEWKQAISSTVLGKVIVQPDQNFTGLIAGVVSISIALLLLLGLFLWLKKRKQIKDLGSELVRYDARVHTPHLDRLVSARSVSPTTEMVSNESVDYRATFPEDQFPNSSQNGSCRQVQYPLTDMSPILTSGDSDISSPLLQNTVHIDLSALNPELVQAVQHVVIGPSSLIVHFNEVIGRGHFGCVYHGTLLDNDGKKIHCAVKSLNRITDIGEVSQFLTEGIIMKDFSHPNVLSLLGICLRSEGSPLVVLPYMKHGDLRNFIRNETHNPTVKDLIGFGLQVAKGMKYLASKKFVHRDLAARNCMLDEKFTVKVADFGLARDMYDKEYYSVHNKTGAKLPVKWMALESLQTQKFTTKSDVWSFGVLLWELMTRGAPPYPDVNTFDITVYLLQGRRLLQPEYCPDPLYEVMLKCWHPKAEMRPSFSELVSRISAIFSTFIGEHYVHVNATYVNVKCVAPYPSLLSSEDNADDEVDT
Protocol: as §2

Row | Binder | Kd [1] [nM] | koff [1] [s⁻¹] | kon [1] [M⁻¹ s⁻¹] | Kd [2] [nM] | koff [2] [s⁻¹] | kon [2] [M⁻¹ s⁻¹] | Kd [3] [nM] | koff [3] [s⁻¹] | kon [3] [M⁻¹ s⁻¹] | Positive Cells [4] [%] | Positive Cells [5] [%] | Positive Cells [6] [%] | Positive Cells [7] [%]
1 | anti-HER3/MET bispecific antibody 3G6-2F11 (bispecific antibody, V domains shown) VH 1: QVQLVQSGPVLVKPTETLTLTCTVSGFSLSNIRMGVSWIRQPPGKALEWLAHIFSNDDKSYSTSLKSRLTISKDTSKSQVVLTMTNVDPVDTATYYCTRMRYSGGPFDYWGQGTLVTVSS VH 2: EVQLVESGPGLVKPSETLSLTCTVSGGSISSNYWSWIRQPPGKGLEWIGYIYHSGSTNYNPSLKSRVTISVDTSKNQFSLKLSSVTAADTAVYFCARGPVSIFGVVKYIDLWGRGTLVTVSS VL: not shown | 47.4 | 0.0106 | 224000 | 50.7 | 0.00256 | 50500 | 90.2 | 0.0103 | 114000 | 47.3 | 56 | 99.8 | 72.9
2 | anti-HER3/MET bispecific antibody 1B2-2F11 (bispecific antibody, V domains shown) VH 1: QVQLVQSGPVLVKPTETLTLTCTVSTFSLSNARMGVSWIRQPPGKALEWLAHIFSNDDKSYSPSLKSRLTISKDTSKTQVVLTMTNMDPVDTATYYCSRMRYSGGPFDYWGQGSLVTVSS VH 2: EVQLVESGPGLVKPSETLSLTCTVSGGSISSNYWSWIRQPPGKGLEWIGYIYHSGSTNYNPSLKSRVTISVDTSKNQFSLKLSSVTAADTAVYFCARGPVSIFGVVKYIDLWGRGTLVTVSS VL: not shown | 16.1 | 0.00253 | 157000 | 40.4 | 0.00255 | 63200 | 38.9 | 0.00255 | 65600 | 51.4 | 56.3 | 99.8 | 66.4
3 | anti-HER3/MET bispecific antibody 3E1-2F11 (bispecific antibody, V domains shown) VH 1: EVQLVQSGPVLAKPTETLTLTCTVSGFSLSNIRMGVSWIRQPPGKALEWLAHIFSNDDKSYSPSLKNRLTISKDTSKSQVVLTMTTMDPMDTATYYCTRMKYSGGPFDYWGQGTLVTVSS VH 2: EVQLVESGPGLVKPSETLSLTCTVSGGSISSNYWSWIRQPPGKGLEWIGYIYHSGSTNYNPSLKSRVTISVDTSKNQFSLKLSSVTAADTAVYFCARGPVSIFGVVKYIDLWGRGTLVTVSS VL: not shown | 14.8 | 0.00342 | 231000 | 43.1 | 0.00285 | 66100 | 33.7 | 0.00325 | 96400 | 56.4 | 50.3 | 99.8 | 87.3
4 | anti-HER3/MET bispecific antibody 3G6-8E2 (bispecific antibody, V domains shown) VH 1: QVQLVQSGPVLVKPTETLTLTCTVSGFSLSNIRMGVSWIRQPPGKALEWLAHIFSNDDKSYSTSLKSRLTISKDTSKSQVVLTMTNVDPVDTATYYCTRMRYSGGPFDYWGQGTLVTVSS VH 2: QVQLVQSGPALVKPTQTLTLTCTFSGFSLYTSGVAVAWIRQPPGKALEWLALIYWDDDKWYTPSLKTRLSITKDTSKNQVVLTMTNMDPVDTATYYCAHRGSFNWNYGYFDYWGQGTLVTVSS VL: not shown | 38.9 | 0.0101 |  | 14.8 | 0.00113 |  | 67.2 |  |  | 55.2 | 58.4 | 99.6 | 51.6
5 | anti-HER3/MET bispecific antibody 1B2-8E2 (bispecific antibody, V domains shown) VH 1: QVQLVQSGPVLVKPTETLTLTCTVSTFSLSNARMGVSWIRQPPGKALEWLAHIFSNDDKSYSPSLKSRLTISKDTSKTQVVLTMTNMDPVDTATYYCSRMRYSGGPFDYWGQGSLVTVSS VH 2: QVQLVQSGPALVKPTQTLTLTCTFSGFSLYTSGVAVAWIRQPPGKALEWLALIYWDDDKWYTPSLKTRLSITKDTSKNQVVLTMTNMDPVDTATYYCAHRGSFNWNYGYFDYWGQGTLVTVSS VL: not shown | 13.8 | 0.00252 | 183000 | 14 | 0.000998 | 71400 | 31.5 | 0.0025 | 79300 | 56.3 | 61.4 | 99.6 | 54.3
6 | anti-HER3/MET bispecific antibody 3E1-8E2 (bispecific antibody, V domains shown) VH 1: EVQLVQSGPVLAKPTETLTLTCTVSGFSLSNIRMGVSWIRQPPGKALEWLAHIFSNDDKSYSPSLKNRLTISKDTSKSQVVLTMTTMDPMDTATYYCTRMKYSGGPFDYWGQGTLVTVSS VH 2: QVQLVQSGPALVKPTQTLTLTCTFSGFSLYTSGVAVAWIRQPPGKALEWLALIYWDDDKWYTPSLKTRLSITKDTSKNQVVLTMTNMDPVDTATYYCAHRGSFNWNYGYFDYWGQGTLVTVSS VL: not shown | 13.2 | 0.0035 | 266000 | 16.9 | 0.0012 | 71100 | 29 | 0.00329 | 113000 | 58.4 | 63.9 | 99.5 | 54.8
7 | anti-HER3/MET bispecific antibody 1C5-8E2 (bispecific antibody, V domains shown) VH 1: QVQLVESGGGVVQPGKSLRLSCAASGFTFSRSGMHWVRQAPGKGLEWVALISFDGSNKYYADSVKGRFTISRDNSKNTLNLQMNSLRAEDTAVYYCAKGGFGVVIYDAFDIWGHGTMVTVSS VH 2: QVQLVQSGPALVKPTQTLTLTCTFSGFSLYTSGVAVAWIRQPPGKALEWLALIYWDDDKWYTPSLKTRLSITKDTSKNQVVLTMTNMDPVDTATYYCAHRGSFNWNYGYFDYWGQGTLVTVSS VL: not shown | 32.7 | 0.000777 | 23700 | 18 | 0.00122 | 68000 | 92.5 | 0.000844 | 9120 | 56.9 | 55.1 | 99.6 | 55.1
8 | anti-HER3/MET bispecific antibody 3E1-8D9 (bispecific antibody, V domains shown) VH 1: EVQLVQSGPVLAKPTETLTLTCTVSGFSLSNIRMGVSWIRQPPGKALEWLAHIFSNDDKSYSPSLKNRLTISKDTSKSQVVLTMTTMDPMDTATYYCTRMKYSGGPFDYWGQGTLVTVSS VH 2: QVQLQESGPGLVKPSETLSLTCTVSGGSISGHYWSWIRQSPGKGLEWIGYITYSGSTNYNPSLKSRVTISVDTSKNQFSLKLSSVTAADTAVYYCGTIAVAGRVYYYGVDVWGRGTTVTVSS VL: not shown | 15 | 0.00341 | 227000 | 21.8 | 0.00051 | 23400 | 33.1 | 0.00322 | 97300 | 59 | 58.6 | 99.9 | 70.2
9 | anti-HER3/MET bispecific antibody 1B2-8D9 (bispecific antibody, V domains shown) VH 1: QVQLVQSGPVLVKPTETLTLTCTVSTFSLSNARMGVSWIRQPPGKALEWLAHIFSNDDKSYSPSLKSRLTISKDTSKTQVVLTMTNMDPVDTATYYCSRMRYSGGPFDYWGQGSLVTVSS VH 2: QVQLQESGPGLVKPSETLSLTCTVSGGSISGHYWSWIRQSPGKGLEWIGYITYSGSTNYNPSLKSRVTISVDTSKNQFSLKLSSVTAADTAVYYCGTIAVAGRVYYYGVDVWGRGTTVTVSS VL: not shown | 16.7 | 0.00262 | 157000 | 35.7 | 0.000973 | 27200 | 38.9 | 0.00261 | 67100 | 54 | 55.5 | 99.8 | 64.9
